According to patent US20140050743A1, “BINDING PROTEINS TO INHIBITORS OF COAGULATION FACTORS” (BAYER INTELLECTUAL PROPERTY GMBH, priority 2011, published 2014):
Positions count from the first letter of the chain named. Blank lines part the entries; values can stand above or below the molecule they belong to.

Columns and labels:
[1] = system: rivaroxaban induced FXa inhibition; experiment: Functional neutralization of rivaroxaban in a biochemical Factor Xa activity assay; details: Table 6, 0.05 nM FXa, 0.6 nM rivaroxaban
Procedure: Serial dilutions of test compounds in assay buffer (50 mM HEPES pH 7.8, 250 mM NaCl, 6 mM CaCl2, 0.01% Brij35, 1 mM glutathione, 4 mM EDTA, 0.05% bovine serum albumin) were performed (typical concentrations ranging from 5 μM to 0.0007 μM).
20 μL of the diluted test compounds were placed in 384 well microtiter plates (Greiner, Frickenhausen, Germany), followed by the addition of 10 μL of a 1:400 dilution (250 μM) of the FXa substrate Pefafluor Xa (100 mM in DMSO, Loxo, Dossenheim, Germany) in assay buffer. […] Simultaneously, control reactions without rivaroxaban were started.
During incubation at 32° C., reaction progress curves were monitored using a fluorescence microtiter plate reader (e.g Tecan Ultra Evolution, Tecan Group Ltd., Mannedorf, Switzerland; excitation 360 nm, emission 465 nm).
The dilution of FXa was chosen that in the control reactions the reaction kinetics was linear, and less than 50% of the substrate was consumed (typical final FXa concentration in the assay: 0.05 nM). […] Results are depicted in FIG. 1.

[2] = Affinity by surface plasmon resonance (Biacore), immobilized Fab, analyte rivaroxaban; type: binding; details: Table 6, immobilized Fabs, SPR (Biacore)
Text: “Binding affinity” refers to the strength of the sum total of noncovalent interactions between a single binding site of a molecule and its binding partner. Unless indicated otherwise, as used herein, “binding affinity” refers to intrinsic binding affinity which reflects a 1:1 interaction between members of a binding pair (e.g. an antibody and an antigen). The dissociation constant “KD” is commonly used to describe the affinity between a molecule (such as an antibody) and its binding partner (such as an antigen) i.e. how tightly a ligand binds to a particular protein. Ligand-protein affinities are influenced by non-covalent intermolecular interactions between the two molecules Affinity can be measured by common methods known in the art, including those described herein. In one embodiment, the “KD” or “KD value” according to this invention is measured by using surface plasmon resonance assays using a Biacore T100 instrument (GE Healthcare Biacore, Inc.) according to Example 5. The dissociation equilibrium constant (KD) was calculated based on the ratio of association (kon) and dissociation rated (koff) constants, obtained by fitting sensograms with a first order 1:1 binding model using Biacore Evaluation Software. Other suitable devices are BIACORE(R)-2000, a BIACORE (R)-3000 (BIAcore, Inc., Piscataway, N.J.), or ProteOn XPR36 instrument (Bio-Rad Laboratories, Inc.).
Binding affinities of Fab-fragments were determined by surface plasmon resonance analysis on a Biacore T100 instrument (GE Healthcare Biacore, Inc.). Fab fragments were diluted to a final concentration of 10 μg/ml in 10 mM sodium acetate, pH 4.5, and immobilized on a CM5 chip (GE Healthcare Biacore, Inc.) at levels of 3000-5000RU by amine-coupling chemistry for flow cells 2, 3 and 4, respectively. Flow cell 1 was used as a reference. […] Sensograms were generated after in-line reference cell correction followed by buffer sample subtraction. The dissociation equilibrium constant (KD) was calculated based on the ratio of association and dissociation rated constants, obtained by fitting sensograms with a first order 1:1 binding model using BiaEvaluation Software.

[3] = ELISA-based activity assay of antibody variants without a competition step; type: binding; parameters: key: +++: Variants with an average ratio above reference plus 2×SD; +/−: variants with a ratio below reference minus 2×SD; ++: All variants with a performance in between both thresholds; −: Variants with a ratio below 0.5; details: Table 10, multiple substitutions within M14-G07, variant to reference ratio (reference 2-fold improved over wt)
Procedure: To determine the activity of the mutated antibody variants on compound from Example 1K an equilibrium or dissociation limited ELISA assay format was used. Briefly, MTP plates (Nunc Maxisorp black, 460518) were coated with 4 μg/ml streptavidin (Calbiochem, 189730) diluted in coating buffer (Candor Bioscience GmbH, 121500) and incubated over night at 4° C. After washing with PBST, plates were blocked with 100% Smart Block (Candor Bioscience GmbH, 113500) in PBST for 1 h at room temperature and the washing step was repeated. Plates were incubated with compound from Example 1K at varying concentrations (0.3-200 nM) for 1 h at 37° C., washed with PBST and antibody fragments were immobilized by adding 25 μl of the crude bacterial cultures for 1 h at room temperature. After washing with PBST a competition step or the immediate detection was performed. […] For the detection of the residually bound Fabs a HRP-coupled anti-lambda antibody (Sigma, A5175) diluted in 10% Smart Block in PBST was added for 1 h at room temperature. After washing 10 μM Amplex Red (Invitrogen, A12222) were added and incubated for 10 to 30 min at room temperature followed by measurement of the fluorescence signal.
Provided in Table 9 are several examples of single and/or double amino acid substitutions introduced into the heavy and/or the light chain of M14-G07 (wt). Performance of the variants was analyzed in quadruples in the ELISA without a competition step and the FXa deinhibition assay (FXa DIA). In the ELISA, averages were calculated and normalized to the respective average expression level. Overall performance of variants was evaluated by comparing the variant to wt ratio from 2-3 independent experiments. Variants with an average ratio above wt plus 2×SD (standard deviation of the ratio) were considered as improved and are marked with “++”, whereas variants with a ratio below wt minus 2×SD were considered as reduced in their binding affinity and are marked with “−”. All variants with a performance in between both thresholds are marked with “+/−”. Variants with average fluorescence counts below the negative control (non-expressing cells) plus 3×SD were considered as non-binding and marked with “−−” with none of the variants fulfilling this criteria. In the FXa deinhibition assay averages were calculated and overall performance of variants was evaluated by comparing the variant to wt ratio from 2-3 independent experiments. Variants with an average ratio above wt plus 2×SD were considered as improved and are marked with “++”, whereas variants with a ratio below wt minus 2×SD were considered as either reduced in their binding affinity or non-binding and are marked with “−−”. All variants with a performance in between both thresholds are marked with “+/−”. Variants not analyzed are marked with “nd” (not determined). CDRs were defined according to Kabat.
Provided in Table 10 are examples of combined amino acid substitutions within M14-G07 antibodies. While not every combination is provided in Table 10, it is contemplated that the anti-rivaroxaban antibody may comprise any combination of modifications provided. Variant performance was analyzed in quadruples in the ELISA without a competition step. Averages were calculated, average background signals determined on a streptavidin coated plate without compound from Example 1K were subtracted if the compound from Example 1K concentration used for coating was below 10 nM and signals were normalized to the respective average expression level. Overall performance of variants was evaluated by comparing the variant to reference ratio from 2-3 independent experiments using a 2-fold improved reference variant as compared to wt. Variants with an average ratio above reference plus 2×SD are marked with “+++”, whereas variants with a ratio below reference minus 2×SD are marked with “+/−”. All variants with a performance in between both thresholds are marked with “++”. […]

- EC50 [1]: < 1000 nM
- Kd [2]: < 500 nM
B1: M18-A10: antibody, Vh SEQ ID NO: 215, Vl SEQ ID NO: 216 (antibody, listed as Homo Sapiens, V domains shown)
VH: EVQLLESGGGLVQPGGSLRLSCAASGFTFSSYGMSWVRQAPGKGLEWVSGISGSGGSTYYADSVKGRFTISRDNSKNTLYLQMNSLRAEDTAVYYCARDGGYDELDYWGQGTLVTVTS
VL: QSVLTQPPSASGTPGQRVTISCTGSSSNIGAGYVVHWYQQLPGTAPKLLIYDNNKRPSGVPDRFSGSKSGTSASLAISGLRSEDEADYYCAAWDDSLSAWVFGGGTKLTVL

- EC50 [1]: < 2000 nM
- Kd [2]: < 500 nM
B2: M16-A03: antibody, Vh SEQ ID NO: 211, Vl SEQ ID NO: 212 (antibody, listed as Homo Sapiens, V domains shown)
VH: EVQLLESGGGLVQPGGSLRLSCAASGFTFSSYAMSWVRQAPGKGLEWVSGISGSGGSTFYADSVKGRFTISRDNSENTLYLQMNSLRAEDTAVYYCARQTSSGLAGYSYGLDPWGQGTLVTVTS
VL: B1 VL with V34D, D52S, K55Q, A92G, A99G

B3: M14-G07-28: antibody, Vh SEQ ID NO: 181, Vl SEQ ID NO: 182 (antibody, listed as Homo Sapiens, V domains shown)
VH: EVQLLESGGGLVQPGGSLRLSCAASGFTFSSYAMSWVRQAPGKGLEWVGGISGSGGSTYYADSVKGRFTISRDNSKNTLYLQMNSLRAEDTAVYYCARQGRTSFYLDVWGQGTLVTVSS
VL: QSVLTQPPSASGTPGQRVTISCSGSSSNIGSYYVYWYQQLPGTAPKLLIYDNNQRPSGVPDRFSGSKSGTSASLAISGLRSEDEADYYCVAWDDSYSGHWVFGGGTKLTVL
- ELISA [3]: +++

B4: M14-G07-2: antibody, Vh SEQ ID NO: 129, Vl SEQ ID NO: 130 (antibody, listed as Homo Sapiens, V domains shown)
VH: B3 VH
VL: B3 VL with S23C, S27R, Y96W, H99T
- ELISA [3]: +++

B5: M14-G07-34: antibody, Vh SEQ ID NO: 193, Vl SEQ ID NO: 194 (antibody, listed as Homo Sapiens, V domains shown)
VH: B3 VH with T28R
VL: B3 VL with S26T, N53R, Y96L, H99T
- ELISA [3]: +++

B6: M14-G07-32: antibody, Vh SEQ ID NO: 189, Vl SEQ ID NO: 190 (antibody, listed as Homo Sapiens, V domains shown)
VH: B3 VH with T28R
VL: B3 VL with S31A, N53R, Y96L
- ELISA [3]: +++

B7: M14-G07-29: antibody, Vh SEQ ID NO: 183, Vl SEQ ID NO: 184 (antibody, listed as Homo Sapiens, V domains shown)
VH: B3 VH with T28R, G49S
VL: B3 VL with S31A, D94W, Y96W, H99T
- ELISA [3]: +++

B8: M14-G07-1: antibody, Vh SEQ ID NO: 127, Vl SEQ ID NO: 128 (antibody, listed as Homo Sapiens, V domains shown)
VH: B3 VH with T28R
VL: B3 VL with S27R, Y32F, Y96W, H99T
- ELISA [3]: +++

B9: M14-G07-30: antibody, Vh SEQ ID NO: 185, Vl SEQ ID NO: 186 (antibody, listed as Homo Sapiens, V domains shown)
VH: B3 VH with G49S
VL: B3 VL with S27R, Y32F, Y96L
- ELISA [3]: +++

B10: M14-G07-31: antibody, Vh SEQ ID NO: 187, Vl SEQ ID NO: 188 (antibody, listed as Homo Sapiens, V domains shown)
VH: B3 VH
VL: B3 VL with S31A, Y32F, D94W, Y96L, H99T
- ELISA [3]: +++

B11: M14-G07-33: antibody, Vh SEQ ID NO: 191, Vl SEQ ID NO: 192 (antibody, listed as Homo Sapiens, V domains shown)
VH: B3 VH with T28R
VL: B3 VL with S27R, S31A, Y32F, D94W
- ELISA [3]: +++

B12: M14-G07-37: antibody, Vh SEQ ID NO: 199, Vl SEQ ID NO: 200 (antibody, listed as Homo Sapiens, V domains shown)
VH: B3 VH with G49S, Q99E, R101E
VL: B3 VL with Y96W
- ELISA [3]: +++

- EC50 [1]: < 1000 nM
- Kd [2]: < 500 nM
B13: M16-D05: antibody, Vh SEQ ID NO: 213, Vl SEQ ID NO: 214 (antibody, listed as Homo Sapiens, V domains shown)
VH: EVQLLESGGGLVQPGGSLRLSCAASGFTFSAYWMAWVRQAPGKGLEWVSSISSSSSYIYYADSVKGRFTISRDNSKNTLYLQMNSLRAEDTAVYYCARVTEGGLDYWGQGTLVTVTS
VL: QSVLTQPPSASGTPGQRVTISCSGSSSNIGNNAVNWYQQLPGTAPKLLIYRNNQRPSGVPDRFSGSKSGTSASLAISGLRSEDEADYYCQSYDSSLSGWVFGGGTKLTVL

- EC50 [1]: < 1000 nM
- Kd [2]: < 500 nM
B14: M25-E05: antibody, Vh SEQ ID NO: 219, Vl SEQ ID NO: 220 (antibody, listed as Homo Sapiens, V domains shown)
VH: EVQLLESGGGLVQPGGSLRLSCAASGFTFSNAWMSWVRQAPGKGLEWVSSIHWNGGYIGYAESVKGRFTISRDNSKNTLYLQMNSLRAEDTAVYYCARVTLDAVDYWGQGTLVTVTS
VL: B13 VL with S94N, S95R, S97T, G98A
